B1: ZBTB22 (parent)
chain: AVLAASSPYFHDQVLLKGMTSISL
B2: MED27 (parent)
chain: YNENVYTEDGKLDIWSKSNYQVFQ

Variants of: B1
Assay: protein stability index of a GFP-peptide fusion (GPS, HEK-293T) (PSI 1-6); higher = more stable
Conditions: c terminus: a fixed tail appended
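Note: lentivirally expressed fusions sorted by FACS into six bins by GFP to DsRed ratio, PSI derived from sequencing read proportions per bin multiplied by bin number.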

Protein stability index of substitutions, site by site:
T20: M 3.42 | E 2.54 | Q 2.14 | I 2.3 | V 4.26 | H 1.6 | N 2.51 | L 3.1 | K 2.32
S21: L 3.04 | A 2.04 | D 2.17 | G 2.85 | C 3.52 | E 1.95 | Y 3.85 | N 2.11 | K 2.35 | F 2.52 | Q 2.67
G18: D 3.05 | F 3.77 | Y 3.35 | S 3.59 | I 2.8 | H 1.84 | V 2.66 | A 3.06 | N 2.37 | K 2.14 | W 2.61 | E 1.46
S23: W 2.97 | M 1.86 | G 3.35 | D 1.3 | T 1.22 | F 4.12 | I 2.51 | E 2.57 | L 2.64 | C 1.95 | K 2.8 | H 2.46 | P 3.55
L24: Y 3.14 | P 1.62 | V 1.53 | R 1.84 | S 1.15 | N 1.83 | D 1.76 | A 1.58 | E 1.52 | F 3.47 | K 1.95 | Q 1.7 | H 1.95 | T 1.27 | I 3.01
M19: L 2.23 | G 1.04 | W 1.8 | Q 1.46 | S 2.68 | K 1.37 | A 2.09 | R 2.92 | P 3.42 | E 1.69 | T 2.57 | C 3.68
I22: D 1.66 | E 4.43 | G 2.4 | P 1.72 | Y 3.76 | T 2.75 | A 3.31 | K 2.13 | S 1.29 | H 2.43 | Q 1.09 | N 1.44 | C 1.83
K17: P 2.05 | Y 2.88

Variants of: B2
Assay: as above
Conditions: c terminus: a fixed tail appended

Protein stability index of substitutions, site by site:
G10: V 1.96 | F 1.65 | Q 2.5 | A 2.3 | N 2.54 | I 1.93 | L 2.17 | H 2.61 | P 2.42 | S 2.23 | K 2.91 | C 1.97 | M 2.73 | R 2.21 | Y 1.76 | W 1.99 | E 2.65 | D 2.96 | T 2.45
D13: A 2.12 | I 2.06 | K 2.55 | F 1.84 | R 2.32 | H 2.44 | W 2.46 | M 1.79 | N 1.76 | T 1.63 | G 1.88 | Q 2.05 | S 1.92 | E 2.36 | L 1.69 | P 2.81 | C 2.09 | Y 2.04 | V 3
L12: K 2.33 | Y 1.93 | T 2.21 | H 2.07 | S 2.37 | P 2.39 | C 2.33 | I 2.23 | M 2.07 | E 3.14 | A 2.5 | G 2.63 | R 2.01 | W 2.2 | F 2.19 | Q 3.1 | D 3.34 | V 2.58 | N 2.37
D9: T 1.8 | G 1.63 | R 1.7 | K 2.02 | Q 1.55 | P 2.03 | W 2.01 | Y 2.03 | N 1.76 | F 1.76 | H 1.97 | C 1.64 | I 1.71 | M 1.69 | S 1.96 | V 1.98 | L 1.77 | A 1.65 | E 2.37
K11: V 2.04 | W 2 | N 2.56 | S 2.45 | A 2.27 | E 2.93 | R 1.96 | D 3.48 | Q 2.38 | C 1.78 | M 2.32 | F 2.22 | H 2.2 | Y 1.94 | L 1.59 | G 2.22 | T 2.43 | P 2.13 | I 2.71
V5: C 2.05 | R 2.25 | S 2.34 | D 3.26 | P 2.35 | M 2.1 | F 1.72 | Y 1.97 | L 2.21 | N 3.01 | I 2.73 | K 2.15 | A 2.47 | T 2.67 | W 1.91 | E 3.28 | Q 3.06 | H 2.95 | G 2.71
Y1: H 3.23 | I 2.5 | P 3.52 | G 3.7 | K 3.28 | T 3.4 | Q 3.74 | W 2.93 | R 3.11 | N 3.35 | L 3.2 | C 2.9 | F 2.27 | D 3.38 | A 2.86 | S 3.23 | E 4.04 | V 3.67 | M 3.52
E8: Q 1.82 | F 1.69 | I 1.29 | Y 1.97 | W 1.64 | N 2.62 | K 1.86 | T 1.93 | P 1.68 | D 1.84 | G 1.64 | H 2.07 | S 1.7 | V 1.31 | C 2.18 | L 1.92 | M 1.57 | A 2.33 | R 1.55
E3: H 1.92 | A 1.88 | K 2.31 | C 2.04 | G 2.34 | V 1.69 | W 1.44 | I 1.81 | Q 2.17 | M 1.59 | F 1.8 | L 1.48 | D 1.48 | N 2.36 | Y 1.64 | R 1.41 | S 1.76 | P 1.31 | T 1.88
N4: M 2 | G 2.37 | F 1.93 | D 2.21 | H 2.04 | K 1.8 | R 2.31 | T 2.21 | I 2.04 | Q 2.53 | W 1.15 | Y 1.47 | A 2.54 | E 2.73 | S 1.52 | L 1.99 | P 1.96 | V 1.89 | C 2.29
N2: A 2.53 | P 2.09 | W 1.69 | S 2.02 | Y 2.1 | H 1.75 | F 2.26 | E 3.95 | M 2.01 | R 2.4 | K 2.91 | T 1.95 | Q 2.33 | I 1.68 | G 1.75 | V 3.18 | C 2.47 | L 1.68 | D 3.6
T7: H 2.11 | F 2.13 | P 2.21 | C 2.63 | D 2.7 | Y 2.46 | I 1.72 | E 2.96 | L 1.8 | A 2.21 | N 2.14 | S 1.95 | K 2.35 | Q 2.48 | R 2.06 | M 1.75 | G 2.53 | V 2.05 | W 1.07
Y6: P 2.68 | T 2.98 | V 3.02 | F 2.55 | W 2.04 | M 2.17 | A 2.62 | S 3.26 | Q 2.76 | D 3.3 | R 2.48 | C 2.84 | N 3 | K 2.34 | H 2.95 | L 2.38 | I 2.43 | G 2.57 | E 3.17
